From article PMC2174254 (The Journal of Cell Biology, 1999)

Key:
Assay in all cases: cross-linking
[1] = target: T1, PDI deletion mutant Δ252–277 (S. cerevisiae, UniProt P17967 29-522, Δ252–277, N-glycosylated (endoglycosidase H sensitive))
T1 sequence (looked up): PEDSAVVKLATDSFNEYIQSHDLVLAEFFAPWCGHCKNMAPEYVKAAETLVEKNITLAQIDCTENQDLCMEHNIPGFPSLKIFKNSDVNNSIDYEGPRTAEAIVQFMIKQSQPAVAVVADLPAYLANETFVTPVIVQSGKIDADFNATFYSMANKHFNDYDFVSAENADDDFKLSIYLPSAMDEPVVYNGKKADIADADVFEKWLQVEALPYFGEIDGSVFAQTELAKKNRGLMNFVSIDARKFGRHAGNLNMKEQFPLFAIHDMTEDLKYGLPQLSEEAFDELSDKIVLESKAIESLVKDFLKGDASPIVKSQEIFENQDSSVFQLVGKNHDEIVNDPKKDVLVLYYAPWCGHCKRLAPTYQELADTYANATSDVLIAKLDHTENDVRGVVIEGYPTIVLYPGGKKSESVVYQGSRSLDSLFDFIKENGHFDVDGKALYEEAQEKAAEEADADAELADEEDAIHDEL

[2] = target: T2, PDI deletion mutant Δ222–302 (S. cerevisiae, UniProt P17967 29-522, Δ222–302, N-glycosylated (endoglycosidase H sensitive))
T2 sequence (looked up): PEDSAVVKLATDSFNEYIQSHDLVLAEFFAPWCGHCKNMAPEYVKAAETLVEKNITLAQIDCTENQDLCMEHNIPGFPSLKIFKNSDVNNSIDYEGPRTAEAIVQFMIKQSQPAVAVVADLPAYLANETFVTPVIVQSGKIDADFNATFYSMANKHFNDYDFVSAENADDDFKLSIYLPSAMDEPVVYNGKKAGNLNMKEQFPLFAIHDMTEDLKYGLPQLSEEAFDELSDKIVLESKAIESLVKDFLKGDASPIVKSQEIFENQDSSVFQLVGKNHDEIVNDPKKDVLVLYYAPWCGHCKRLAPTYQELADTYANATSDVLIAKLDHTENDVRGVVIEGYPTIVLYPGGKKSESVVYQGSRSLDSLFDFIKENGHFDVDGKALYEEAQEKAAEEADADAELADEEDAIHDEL

[3] = target: T1, PDI deletion mutant Δ252–277; remark: listed apart in the source
[4] = target: T2, PDI deletion mutant Δ222–302; remark: listed apart in the source

- fold reduction of BiP coimmunoprecipitated with Δgpαf present against absent [1]: 1.3 fold
- fold decrease of BiP coimmunoprecipitated with Δgpαf present against absent [2]: 4.7 fold
- fold reduction of affinity compared with wild-type PDI [3]: ~2.8 fold
- BiP immunoprecipitated relative to wild-type PDI [4]: 2.7 fold
B1: BiP, heavy chain binding protein (natural protein)
chain: not shown
